Primed or numbered codes have the meaning given here. Side-chain parts run from the residue outwards. PEG4′ = not defined here; Mal = not defined here
Biological target: recombinant human Cathepsin B (human, UniProt P07858 80-333)
Assay: cell-based or functional assay

## {DM1-Mal}-FKK([PEG4′-Mal-Cys-Ac])F-OH (reading uncertain; also: printed as DM1-Mal-Phe-Lys-Lys(PEG4-Mal-Cys-Ac)-Phe-OH) [Compound 5: DM1-Mal-Phe-Lys-Lys(PEG4-Mal-Cys-Ac)-Phe-OH]
  Cat B-induced drug release, fold faster than the reference Cys-MC-Val-Cit-PABC-MMAF: 20 times
